According to patent publication US20200079833A1 (AstraZeneca / MedImmune, published 2020):
Starred links: 1 amine or outer side, 2 acyl side, 3 side chain; linkers in the order of their positions; H or OH if unused. Non-standard residues stand in square brackets, D forms with d. Groups on a side chain read outwards from the residue. Primed or numbered codes have the meaning given here. No end group written: not given here. *: point of attachment. γGlu = O=C(O)[C@H](CCC(=O)[*:2])N[*:1]; Stearoyl = CCCCCCCCCCCCCCCCCC(=O)*; αMeF = C[C@](N)(Cc1ccccc1)C(=O)O; αMeK = C[C@](N)(CCCCN)C(=O)O; αMeS = C[C@](N)(CO)C(=O)O; PEG2′ = not defined here; Aib = CC(C)(N)C(=O)O; Ahx = NCCCCCC(=O)O

T1: glucose-dependent insulinotropic peptide (gastric inhibitory polypeptide) receptor (GIPR) (human, UniProt P48546 22-466)
T1 sequence (looked up): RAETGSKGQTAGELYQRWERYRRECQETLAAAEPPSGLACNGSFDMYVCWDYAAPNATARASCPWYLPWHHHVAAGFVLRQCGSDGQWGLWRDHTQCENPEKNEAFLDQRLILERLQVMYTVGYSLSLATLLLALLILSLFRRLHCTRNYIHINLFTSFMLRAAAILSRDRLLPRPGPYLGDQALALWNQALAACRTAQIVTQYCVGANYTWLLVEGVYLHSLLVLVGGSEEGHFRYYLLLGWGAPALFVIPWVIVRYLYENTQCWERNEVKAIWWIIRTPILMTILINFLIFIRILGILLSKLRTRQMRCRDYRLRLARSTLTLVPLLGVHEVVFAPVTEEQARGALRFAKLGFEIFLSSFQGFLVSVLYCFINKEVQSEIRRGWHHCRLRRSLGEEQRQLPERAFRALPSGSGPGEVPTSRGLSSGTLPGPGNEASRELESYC


Columns and labels:
Test in all cases: cell-based or functional assay
[1] = target: T1, glucose-dependent insulinotropic …
GLP-1 receptor (GLP-1R) = GLP-1 receptor (GLP-1R) (human, UniProt P43220 24-463)
glucagon receptor (GCGR) = glucagon receptor (GCGR) (human, UniProt P47871 26-477)
glucagon receptor (GCGR), sequence (P47871 26-477): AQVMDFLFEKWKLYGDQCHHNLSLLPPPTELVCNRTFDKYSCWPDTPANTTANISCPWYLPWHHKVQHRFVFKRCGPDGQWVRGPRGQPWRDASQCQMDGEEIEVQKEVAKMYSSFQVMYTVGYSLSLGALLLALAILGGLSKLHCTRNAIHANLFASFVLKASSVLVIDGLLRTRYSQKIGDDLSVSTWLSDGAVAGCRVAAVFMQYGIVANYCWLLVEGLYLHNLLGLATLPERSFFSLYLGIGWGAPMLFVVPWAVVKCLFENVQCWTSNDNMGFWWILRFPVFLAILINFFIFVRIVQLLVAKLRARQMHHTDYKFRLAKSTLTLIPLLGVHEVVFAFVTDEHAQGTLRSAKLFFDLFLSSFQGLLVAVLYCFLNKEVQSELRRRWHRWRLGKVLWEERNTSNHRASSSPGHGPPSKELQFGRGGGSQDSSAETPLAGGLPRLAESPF

| Binder | Primary assay EC50 (cAMP), GIP-R, first run [1] | Primary assay EC50 (cAMP), GIP-R, second run [1] | Primary assay EC50 (cAMP), GLP-1R n1 (GLP-1 receptor (GLP-1R)) | Primary assay EC50 (cAMP), GLP-1R n2 (GLP-1 receptor (GLP-1R)) | Primary assay EC50 (cAMP), Mean pM GLP-1R (GLP-1 receptor (GLP-1R)) | Primary assay EC50 (cAMP), Gluc-R, first run (glucagon receptor (GCGR)) | Primary assay EC50 (cAMP), Gluc-R, second run (glucagon receptor (GCGR)) |
| --- | --- | --- | --- | --- | --- | --- | --- |
| H[Aib]EGS[αMeF]TSDV[αMeS]S[αMeF]LEGEAA[αMeK]E[αMeF]IA[αMeF]VVK([γGlu-γGlu-γGlu-Stearoyl])GG-NH2 (N-terminus assumed; SMILES CCCCCCCCCCCCCCCCCC(=O)N[C@@H](CCC(=O)N[C@@H](CCC(=O)N[C@@H](CCC(=O)NCCCC[C@H](NC(=O)[C@@H](NC(=O)[C@@H](NC(=O)[C@](C)(Cc1ccccc1)NC(=O)[C@H](C)NC(=O)[C@@H](NC(=O)[C@](C)(Cc1ccccc1)NC(=O)[C@H](CCC(=O)O)NC(=O)[C@](C)(CCCCN)NC(=O)[C@H](C)NC(=O)[C@H](C)NC(=O)[C@H](CCC(=O)O)NC(=O)CNC(=O)[C@H](CCC(=O)O)NC(=O)[C@H](CC(C)C)NC(=O)[C@](C)(Cc1ccccc1)NC(=O)[C@H](CO)NC(=O)[C@](C)(CO)NC(=O)[C@@H](NC(=O)[C@H](CC(=O)O)NC(=O)[C@H](CO)NC(=O)[C@@H](NC(=O)[C@](C)(Cc1ccccc1)NC(=O)[C@H](CO)NC(=O)CNC(=O)[C@H](CCC(=O)O)NC(=O)C(C)(C)NC(=O)[C@@H](N)Cc1c[nH]cn1)[C@@H](C)O)C(C)C)[C@@H](C)CC)C(C)C)C(C)C)C(=O)NCC(=O)NCC(N)=O)C(=O)O)C(=O)O)C(=O)O) [SEQ ID NO 193] | 26 nM | 26 nM | 330 pM | 95 pM | 213 pM | 26 nM | 26 nM |
| H[Aib]EGS[αMeF]TSDV[αMeS]S[αMeF]LEGEAA[αMeK]E[αMeF]IA[αMeF]VVK([Ahx-Stearoyl])GG-NH2 (N-terminus assumed; SMILES CCCCCCCCCCCCCCCCCC(=O)NCCCCCC(=O)NCCCC[C@H](NC(=O)[C@@H](NC(=O)[C@@H](NC(=O)[C@](C)(Cc1ccccc1)NC(=O)[C@H](C)NC(=O)[C@@H](NC(=O)[C@](C)(Cc1ccccc1)NC(=O)[C@H](CCC(=O)O)NC(=O)[C@](C)(CCCCN)NC(=O)[C@H](C)NC(=O)[C@H](C)NC(=O)[C@H](CCC(=O)O)NC(=O)CNC(=O)[C@H](CCC(=O)O)NC(=O)[C@H](CC(C)C)NC(=O)[C@](C)(Cc1ccccc1)NC(=O)[C@H](CO)NC(=O)[C@](C)(CO)NC(=O)[C@@H](NC(=O)[C@H](CC(=O)O)NC(=O)[C@H](CO)NC(=O)[C@@H](NC(=O)[C@](C)(Cc1ccccc1)NC(=O)[C@H](CO)NC(=O)CNC(=O)[C@H](CCC(=O)O)NC(=O)C(C)(C)NC(=O)[C@@H](N)Cc1c[nH]cn1)[C@@H](C)O)C(C)C)[C@@H](C)CC)C(C)C)C(C)C)C(=O)NCC(=O)NCC(N)=O) [SEQ ID NO 194] | 28 nM | 28 nM | 240 pM | 68 pM | 154 pM | 28 nM | 28 nM |
| H[Aib]EGS[αMeF]TSDV[αMeS]S[αMeF]LEGEAA[αMeK]E[αMeF]IA[αMeF]VVK([Ahx-Ahx-Ahx-Stearoyl])GG-NH2 (N-terminus assumed; SMILES CCCCCCCCCCCCCCCCCC(=O)NCCCCCC(=O)NCCCCCC(=O)NCCCCCC(=O)NCCCC[C@H](NC(=O)[C@@H](NC(=O)[C@@H](NC(=O)[C@](C)(Cc1ccccc1)NC(=O)[C@H](C)NC(=O)[C@@H](NC(=O)[C@](C)(Cc1ccccc1)NC(=O)[C@H](CCC(=O)O)NC(=O)[C@](C)(CCCCN)NC(=O)[C@H](C)NC(=O)[C@H](C)NC(=O)[C@H](CCC(=O)O)NC(=O)CNC(=O)[C@H](CCC(=O)O)NC(=O)[C@H](CC(C)C)NC(=O)[C@](C)(Cc1ccccc1)NC(=O)[C@H](CO)NC(=O)[C@](C)(CO)NC(=O)[C@@H](NC(=O)[C@H](CC(=O)O)NC(=O)[C@H](CO)NC(=O)[C@@H](NC(=O)[C@](C)(Cc1ccccc1)NC(=O)[C@H](CO)NC(=O)CNC(=O)[C@H](CCC(=O)O)NC(=O)C(C)(C)NC(=O)[C@@H](N)Cc1c[nH]cn1)[C@@H](C)O)C(C)C)[C@@H](C)CC)C(C)C)C(C)C)C(=O)NCC(=O)NCC(N)=O) [SEQ ID NO 196] | 26 nM | 26 nM | 190 pM | 63 pM | 125 pM | 26 nM | 26 nM |
| H[Aib]EGS[αMeF]TSDV[αMeS]S[αMeF]LEGEAA[αMeK]E[αMeF]IA[αMeF]VVK([Ahx-Ahx-Stearoyl])GG-NH2 (N-terminus assumed; SMILES CCCCCCCCCCCCCCCCCC(=O)NCCCCCC(=O)NCCCCCC(=O)NCCCC[C@H](NC(=O)[C@@H](NC(=O)[C@@H](NC(=O)[C@](C)(Cc1ccccc1)NC(=O)[C@H](C)NC(=O)[C@@H](NC(=O)[C@](C)(Cc1ccccc1)NC(=O)[C@H](CCC(=O)O)NC(=O)[C@](C)(CCCCN)NC(=O)[C@H](C)NC(=O)[C@H](C)NC(=O)[C@H](CCC(=O)O)NC(=O)CNC(=O)[C@H](CCC(=O)O)NC(=O)[C@H](CC(C)C)NC(=O)[C@](C)(Cc1ccccc1)NC(=O)[C@H](CO)NC(=O)[C@](C)(CO)NC(=O)[C@@H](NC(=O)[C@H](CC(=O)O)NC(=O)[C@H](CO)NC(=O)[C@@H](NC(=O)[C@](C)(Cc1ccccc1)NC(=O)[C@H](CO)NC(=O)CNC(=O)[C@H](CCC(=O)O)NC(=O)C(C)(C)NC(=O)[C@@H](N)Cc1c[nH]cn1)[C@@H](C)O)C(C)C)[C@@H](C)CC)C(C)C)C(C)C)C(=O)NCC(=O)NCC(N)=O) [SEQ ID NO 195] | 27 nM | 27 nM | 170 pM | 46 pM | 107 pM | 27 nM | 27 nM |

Next, values leading:

| Primary assay EC50 (cAMP), GIP-R, first run [1] | Primary assay EC50 (cAMP), GIP-R, second run [1] | Primary assay EC50 (cAMP), GLP-1R n1 (GLP-1 receptor (GLP-1R)) | Primary assay EC50 (cAMP), GLP-1R n2 (GLP-1 receptor (GLP-1R)) | Primary assay EC50 (cAMP), Mean pM GLP-1R (GLP-1 receptor (GLP-1R)) | Primary assay EC50 (cAMP), Gluc-R, first run (glucagon receptor (GCGR)) | Primary assay EC50 (cAMP), Gluc-R, second run (glucagon receptor (GCGR)) | Binder |
| --- | --- | --- | --- | --- | --- | --- | --- |
| 27 nM | 27 nM | 120 pM | 34 pM | 79 pM | 27 nM | 27 nM | H[Aib]EGS[αMeF]TSDV[αMeS]S[αMeF]LEGEAA[αMeK]E[αMeF]IA[αMeF]VVK([PEG2′-Stearoyl])GG-NH2 [SEQ ID NO 197] |
| 26 nM | 26 nM | 41 pM | 15 pM | 27.9 pM | 26 nM | 26 nM | H[Aib]EGS[αMeF]TSDV[αMeS]S[αMeF]LEGEAA[αMeK]E[αMeF]IA[αMeF]VVK([PEG2′-PEG2′-Stearoyl])GG-NH2 [SEQ ID NO 198] |
| 25 nM | 25 nM | 29 pM | 7.5 pM | 18.3 pM | 25 nM | 25 nM | H[Aib]EGS[αMeF]TSDV[αMeS]S[αMeF]LEGEAA[αMeK]E[αMeF]IA[αMeF]VVK([PEG2′-PEG2′-PEG2′-Stearoyl])GG-NH2 [SEQ ID NO 199] |
